The record followed here is US20230174659A1 (GENERAL HOSPITAL, published 2023).

The target of this experiment is T1, Amino acid residues 130-149 of human TNFR2 (human).
T1 peptide: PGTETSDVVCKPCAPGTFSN
The experiment in a line: ELISA on plate-coated linear peptide S04076. How it is done: ELISA was also used to determine linear epitopes present on the extracellular surface of TNFR2. Linear peptides corresponding to various regions within the TNFR2 primary sequence were purchased from GenScript (Piscataway, NJ), diluted in coating buffer and placed on Immulon 4HBX Flat Bottom Microtiter Plates (Thermo Scientific) at a concentration of 1 µg/well. Primary TNFR2 agonistic antibodies (0.1 µg/well) were incubated with substrates. Secondary antibodies against rodent IgG were used to detect the primary antibodies. Absorbance was measured using the SPECTRAMAX^{®} 190 Absorbance Plate Reader and analyzed with SoftMax Pro 6.3 (Molecular Devices).

B1: agonistic TNFR2 antibody TNFRAG1 (antibody, V domains shown)
VH: EVQLQQFGAELVKPGASVKISCKASGYTFTDYNIDWVKQSHGKSLEWIGDINPNYDSTSYSQKFRGKATLTVDKSSSTAYMELRSLTSEDTAVYYCARGNSWYFDVWGAGTTVTVSS
VL: QIVLTQSPALMSASPGEKVTMTCSASSSVRYMYWYQQKPRSSPKPWIYLTSNLASGVPARFSGSGSGTSYSLTISSMEAEDAATYYCQQWSSNPLTFGAGTKLELK
notes: It was detected with secondary antibodies against rodent IgG; also called monoclonal TNFR2 antibody TNFRAG1; TNFR2 agonist antibody
Regarding B1, the binding result was “no binding”.
